Assay results reported in PMC3647168 (Scientific Reports, 2013).

Biological target: T1, His-DDA3 (UniProt Q6PGN9 1-363)
T1 sequence (looked up): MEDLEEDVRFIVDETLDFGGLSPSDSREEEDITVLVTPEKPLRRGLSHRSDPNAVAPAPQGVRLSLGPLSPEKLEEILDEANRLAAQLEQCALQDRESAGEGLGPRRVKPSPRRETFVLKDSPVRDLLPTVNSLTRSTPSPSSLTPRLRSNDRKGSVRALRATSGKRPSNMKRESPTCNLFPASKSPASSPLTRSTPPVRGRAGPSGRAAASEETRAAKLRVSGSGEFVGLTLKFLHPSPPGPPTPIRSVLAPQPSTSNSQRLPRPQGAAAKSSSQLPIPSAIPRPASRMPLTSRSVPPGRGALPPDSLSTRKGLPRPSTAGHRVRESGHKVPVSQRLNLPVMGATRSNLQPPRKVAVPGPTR
Experiment: pull-down

binding result: binds
B1: GST-EB1 (natural protein, UniProt Q15691 1-268, looked up)
chain: MAVNVYSTSVTSDNLSRHDMLAWINESLQLNLTKIEQLCSGAAYCQFMDMLFPGSIALKKVKFQAKLEHEYIQNFKILQAGFKRMGVDKIIPVDKLVKGKFQDNFEFVQWFKKFFDANYDGKDYDPVAARQGQETAVAPSLVAPALNKPKKPLTSSSAAPQRPISTQRTAAAPKAGPGVVRKNPGVGNGDDEAAELMQQVNVLKLTVEDLEKERDFYFGKLRNIELICQENEGENDPVLQRIVDILYATDEGFVIPDEGGPQEEQEEY
